One block for each binder: values may come before it.
Key:
[1] = target: T1, TruB pseudouridine synthase family member 1 (human, UniProt Q8WWH5 2-349); test: protein array
T1 construct: on protein array; also called TRUB1
T1 sequence: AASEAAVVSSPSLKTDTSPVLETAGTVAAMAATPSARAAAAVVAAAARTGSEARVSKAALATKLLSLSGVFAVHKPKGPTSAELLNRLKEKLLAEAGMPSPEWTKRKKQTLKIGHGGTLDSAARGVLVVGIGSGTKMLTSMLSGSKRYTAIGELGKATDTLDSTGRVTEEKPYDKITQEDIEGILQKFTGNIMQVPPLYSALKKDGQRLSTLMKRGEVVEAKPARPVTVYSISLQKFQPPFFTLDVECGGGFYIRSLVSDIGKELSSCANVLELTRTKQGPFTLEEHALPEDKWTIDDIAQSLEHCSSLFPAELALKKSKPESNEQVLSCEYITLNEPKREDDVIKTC

[2] = target: T2, phospholipid scramblase 4, transcript variant X4 (human, UniProt Q9NRQ2 1-329); test: protein array
T2 construct: on protein array; also called PLSCR4
T2 chain: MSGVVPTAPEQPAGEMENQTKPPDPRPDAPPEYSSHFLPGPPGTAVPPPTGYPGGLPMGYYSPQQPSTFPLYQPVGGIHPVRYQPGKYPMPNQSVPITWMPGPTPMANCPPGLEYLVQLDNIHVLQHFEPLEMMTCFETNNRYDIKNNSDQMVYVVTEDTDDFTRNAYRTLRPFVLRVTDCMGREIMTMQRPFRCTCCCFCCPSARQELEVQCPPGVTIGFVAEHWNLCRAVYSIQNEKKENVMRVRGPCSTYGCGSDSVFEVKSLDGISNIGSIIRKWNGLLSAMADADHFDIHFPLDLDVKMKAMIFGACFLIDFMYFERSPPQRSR

[3] = target: T3, PNMA family member 5, transcript variant 2 (human, UniProt Q96PV4 1-448); test: protein array
T3 construct: on protein array; also called PNMA5

[4] = target: T4, phospholipase C delta 1, transcript variant 2 (human, UniProt P51178 1-756); test: protein array
T4 construct: on protein array; also called PLCD1
T4 sequence: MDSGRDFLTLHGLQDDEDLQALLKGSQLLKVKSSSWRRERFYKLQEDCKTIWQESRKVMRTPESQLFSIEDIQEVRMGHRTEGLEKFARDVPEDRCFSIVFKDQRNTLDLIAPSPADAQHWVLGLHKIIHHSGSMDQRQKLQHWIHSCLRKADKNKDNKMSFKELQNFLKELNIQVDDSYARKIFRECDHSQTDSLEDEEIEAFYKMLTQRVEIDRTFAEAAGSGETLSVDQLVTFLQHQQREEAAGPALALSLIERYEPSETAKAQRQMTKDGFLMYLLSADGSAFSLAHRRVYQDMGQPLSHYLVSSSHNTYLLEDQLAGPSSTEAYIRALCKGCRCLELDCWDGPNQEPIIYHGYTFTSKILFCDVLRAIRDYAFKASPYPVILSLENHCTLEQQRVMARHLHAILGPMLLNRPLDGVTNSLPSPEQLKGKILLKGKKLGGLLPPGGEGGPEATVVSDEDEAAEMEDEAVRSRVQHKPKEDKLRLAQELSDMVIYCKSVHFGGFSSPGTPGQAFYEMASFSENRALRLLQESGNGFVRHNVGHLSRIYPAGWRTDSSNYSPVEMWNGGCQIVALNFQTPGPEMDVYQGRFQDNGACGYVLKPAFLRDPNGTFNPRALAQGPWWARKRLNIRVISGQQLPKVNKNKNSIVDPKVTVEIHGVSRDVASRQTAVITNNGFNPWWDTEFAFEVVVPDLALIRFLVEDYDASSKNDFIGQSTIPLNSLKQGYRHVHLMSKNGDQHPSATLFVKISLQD

[5] = target: T5, zinc finger protein 326, transcript variant 1 (human, UniProt Q5BKZ1 1-582); test: protein array
T5 construct: on protein array; also called ZNF326
T5 sequence: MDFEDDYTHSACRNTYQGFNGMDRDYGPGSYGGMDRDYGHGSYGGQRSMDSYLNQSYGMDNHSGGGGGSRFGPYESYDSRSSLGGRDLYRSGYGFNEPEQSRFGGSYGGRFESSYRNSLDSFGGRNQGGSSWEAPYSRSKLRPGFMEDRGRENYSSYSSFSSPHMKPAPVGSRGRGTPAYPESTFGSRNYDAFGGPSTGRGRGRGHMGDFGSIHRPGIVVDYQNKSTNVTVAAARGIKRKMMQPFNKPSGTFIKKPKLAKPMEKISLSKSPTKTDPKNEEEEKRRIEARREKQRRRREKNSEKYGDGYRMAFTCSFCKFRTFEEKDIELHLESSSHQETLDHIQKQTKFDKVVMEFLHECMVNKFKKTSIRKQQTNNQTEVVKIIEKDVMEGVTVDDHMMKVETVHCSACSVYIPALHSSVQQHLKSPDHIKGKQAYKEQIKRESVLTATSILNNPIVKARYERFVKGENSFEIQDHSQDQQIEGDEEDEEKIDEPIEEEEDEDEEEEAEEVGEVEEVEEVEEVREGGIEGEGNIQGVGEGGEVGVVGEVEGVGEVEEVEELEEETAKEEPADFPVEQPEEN

[6] = target: T6, nucleosome assembly protein 1 like 1, transcript variant 1 (human, UniProt P55209 2-388); test: protein array
T6 construct: on protein array; also called NAP1L1
T6 sequence: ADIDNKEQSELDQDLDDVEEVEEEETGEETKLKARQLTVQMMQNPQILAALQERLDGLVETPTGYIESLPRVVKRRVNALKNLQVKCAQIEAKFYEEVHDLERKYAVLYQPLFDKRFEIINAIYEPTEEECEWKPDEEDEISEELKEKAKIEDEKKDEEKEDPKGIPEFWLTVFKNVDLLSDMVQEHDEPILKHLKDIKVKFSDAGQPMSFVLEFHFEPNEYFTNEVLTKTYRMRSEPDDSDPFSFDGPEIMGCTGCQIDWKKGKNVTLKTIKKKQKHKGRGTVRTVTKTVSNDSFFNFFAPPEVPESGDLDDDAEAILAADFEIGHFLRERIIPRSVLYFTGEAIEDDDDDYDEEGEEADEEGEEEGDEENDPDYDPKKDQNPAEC

LN608403.1_frag = target: T7, LN608403.1_frag (human); test: protein array
T7 construct: on protein array
T7 chain: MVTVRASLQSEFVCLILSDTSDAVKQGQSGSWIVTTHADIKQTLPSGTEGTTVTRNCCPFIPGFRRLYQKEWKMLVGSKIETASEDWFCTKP

[7] = target: T8, JPX transcript, XIST activator (human); test: protein array
T8 construct: on protein array
T8 chain: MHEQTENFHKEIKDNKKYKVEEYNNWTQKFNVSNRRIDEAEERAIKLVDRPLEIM

[8] = target: T9, nudE neurodevelopment protein 1, transcript variant 1 (human, UniProt Q9NXR1 1-335); test: protein array
T9 construct: on protein array; also called NDE1
T9 sequence: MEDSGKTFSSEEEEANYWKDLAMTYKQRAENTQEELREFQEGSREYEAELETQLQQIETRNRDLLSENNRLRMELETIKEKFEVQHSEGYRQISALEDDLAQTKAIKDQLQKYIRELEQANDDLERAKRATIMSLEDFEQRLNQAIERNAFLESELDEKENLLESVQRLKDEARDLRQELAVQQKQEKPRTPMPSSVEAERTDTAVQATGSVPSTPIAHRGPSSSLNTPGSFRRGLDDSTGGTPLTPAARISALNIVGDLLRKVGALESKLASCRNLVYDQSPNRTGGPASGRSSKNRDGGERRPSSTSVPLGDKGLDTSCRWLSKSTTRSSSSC

cancer/testis antigen 1A = target: T10, cancer/testis antigen 1A (human, UniProt P78358 1-180)
T10 construct: also called CTAG1A

[9] = target: T11, UTP6 small subunit processome component (human, UniProt Q9NYH9 1-597)
T11 sequence: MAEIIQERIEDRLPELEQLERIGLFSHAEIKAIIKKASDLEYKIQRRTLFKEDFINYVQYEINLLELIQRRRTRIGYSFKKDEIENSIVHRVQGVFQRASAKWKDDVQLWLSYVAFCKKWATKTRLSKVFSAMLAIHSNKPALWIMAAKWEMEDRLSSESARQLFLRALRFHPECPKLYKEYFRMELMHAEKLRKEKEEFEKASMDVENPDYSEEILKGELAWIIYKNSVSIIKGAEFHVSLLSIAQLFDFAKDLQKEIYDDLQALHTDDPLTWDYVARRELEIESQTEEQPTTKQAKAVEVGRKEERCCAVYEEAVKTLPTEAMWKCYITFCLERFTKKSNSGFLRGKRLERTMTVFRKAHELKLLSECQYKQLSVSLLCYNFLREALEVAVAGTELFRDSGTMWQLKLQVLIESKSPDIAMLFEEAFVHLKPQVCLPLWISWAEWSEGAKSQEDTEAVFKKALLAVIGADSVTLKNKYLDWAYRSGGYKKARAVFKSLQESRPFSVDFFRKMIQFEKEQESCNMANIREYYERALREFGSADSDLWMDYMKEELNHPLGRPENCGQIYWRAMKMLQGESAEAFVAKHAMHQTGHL

[10] = target: T12, SNAP associated protein, transcript variant 1 (human, UniProt O95295 2-136); test: protein array
T12 construct: on protein array; also called SNAPIN
T12 sequence: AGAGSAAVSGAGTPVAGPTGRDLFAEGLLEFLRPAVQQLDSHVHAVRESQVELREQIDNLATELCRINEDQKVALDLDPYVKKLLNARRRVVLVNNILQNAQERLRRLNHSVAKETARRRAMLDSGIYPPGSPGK

T10 sequence (P78358 whole entry): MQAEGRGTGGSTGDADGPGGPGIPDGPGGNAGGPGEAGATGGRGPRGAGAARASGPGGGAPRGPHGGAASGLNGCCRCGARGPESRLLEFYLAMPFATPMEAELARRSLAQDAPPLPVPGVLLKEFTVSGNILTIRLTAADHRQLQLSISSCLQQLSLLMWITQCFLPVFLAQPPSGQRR
T3 sequence (Q96PV4 other isoform, or with tags, fused parts or gaps mutant limits assumed): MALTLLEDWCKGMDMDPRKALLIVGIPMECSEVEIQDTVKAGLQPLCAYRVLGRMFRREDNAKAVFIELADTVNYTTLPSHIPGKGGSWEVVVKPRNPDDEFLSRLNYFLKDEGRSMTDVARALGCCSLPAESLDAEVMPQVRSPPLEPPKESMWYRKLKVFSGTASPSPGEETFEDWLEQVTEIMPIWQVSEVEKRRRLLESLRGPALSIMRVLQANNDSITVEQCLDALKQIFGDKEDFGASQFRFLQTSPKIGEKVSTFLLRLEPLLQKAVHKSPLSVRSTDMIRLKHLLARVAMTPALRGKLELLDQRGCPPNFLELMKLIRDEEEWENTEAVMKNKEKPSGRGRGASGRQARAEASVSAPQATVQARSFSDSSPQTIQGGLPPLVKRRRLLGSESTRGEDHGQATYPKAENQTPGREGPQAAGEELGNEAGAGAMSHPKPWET

B1: TCER1003 (antibody, V domains shown)
VH: QITLKESGPTLVKPTQTLTLTCTFSGFSLTTTDVGVGWIRQPPGKALEWLTIIYWDDDERYSPSLKSRLTITKDTSKNQVVLSMTNMDPVDTATYYCARVYSTKWDFDYWGQGTLVTVSS
VL: VSSELTQDPAVSVALGQTVRITCQGDSLRRYYVSWYRQKPGEAPVVVIYGKNNRPSWIPDRLSGSSSGNTASLTITGAQAEDEADYYCCSRDSSGNPWVFGGGTKLTVLG
notes: VH/VL only
binding result [1]: binds
binding result [2]: binds

B2: TBRE1039 (antibody, V domains shown)
VH: PVQLVQSGAEVKKPGSSVKVSCKASGGTFSSYAISWVRQAPGQGLEWMGGIIPIFGTANYAQKFQGRVTITADESTSTAYMELSSLRSEDTAVYYCARENWNSAGTTEWFDPWGQGTLVTVSS
VL: PYVLTQPPSVSVAPGKTARITCGGNNIGSKSVHWYQQKPGQAPVLVIYYDSDRPSGIPERFSGSNSGNTATLTISRVEAGDEADYYCQVWDSSSDHYVVFGGGTKLTVLG
notes: VH/VL only
binding result [3]: binds
binding result [4]: binds
binding result [5]: binds

B3: TCER1001 (antibody, V domains shown)
VH: EVQLVESGGGLVQPGRSLRLSCAASGFTFDDYAMHWVRQAPGKGLEWVSGISWNSGSIGYADSVKGRFTISRDNAKNSLYLQMNSLRAEDTALYYCAKDLLGFRDQRNYYGMDVWGQGTTVTVSS
VL: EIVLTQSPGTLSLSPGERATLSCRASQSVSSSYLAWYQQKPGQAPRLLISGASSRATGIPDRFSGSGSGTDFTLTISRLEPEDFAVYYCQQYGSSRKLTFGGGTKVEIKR
notes: VH/VL only
binding result [6]: binds

B4: TBRE1045 (antibody, V domains shown)
VH: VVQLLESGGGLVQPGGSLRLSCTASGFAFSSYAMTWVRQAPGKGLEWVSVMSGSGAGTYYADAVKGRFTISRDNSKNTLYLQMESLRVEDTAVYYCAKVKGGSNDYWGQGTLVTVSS
VL: PYVLTQPPSVSVAPGQTARITCGGNNIGSKSVHWYQQKPGQAPVMVVYADRERPSGIPERLSGSNFGNTATLTISRVEAGDEADYYCQVWDSNNDHREVFGGGTKLTVLG
notes: VH/VL only
binding result (LN608403.1_frag): binds
binding result [7]: binds

Next, values leading:

binding result [8]: binds
B5: TCER1002 (antibody, V domains shown)
VH: QVQLQESGPGLVKPSETLSLSCTVSGASMNNYYWSWIRQSAGKGLEWIGRIYSSGDTDYNPSLKTRVTMSIDTSKNQFSLNLDSVTAADTATYYCARSFYDTLFYFENWGQGTLVTVSS
VL: DIQMTQSPSTLSASVGDRVTITCRASQSISVWLAWYQQKPGKAPKLLIYKASTLEAGVPSRFSGSGSGTEFSLTISGLQPDDFGTYFCQHYDSYPWTFGQGTKVEMK
notes: VH/VL only

binding result (cancer/testis antigen 1A): binds
B6: TTHY1004 (antibody, V domains shown)
VH: PVQLQESGPGLVKPSQTLSLTCTVSGGSISSGTYYWSWIRQPAGKGLEWIGRIYASGSTNYNPSLKSRVTISVDTSKNQFSLKLTSVTAADTAVYYCARYSGSYPLGFDYWGQGTLVTVSS
VL: DIQMTQSPSSLSASVGDRVTITCRASQSISTYLNWYQQKPGMAPKLLIYAASTLQSGVPSRFSGSGSATDYTLTISSLQPEDFATYYCQQSYNTPLTFGGGTKVDIKR

binding result [9]: binds
B7: TUCE1005 (antibody, V domains shown)
VH: QVQLQESGPGLVKPSETLSLTCTVSGGSISSYYWSWIRQPAGKGLEWIGRIYTSGSTNYNPSLKSRVTMSVDTSKNQFSLKMSSVTAADTAVYYCARGELLFDHWGQGTLVTVSS
VL: not shown

binding result [10]: binds
B8: TBLA1006 (antibody, V domains shown)
VH: VQLVDSGGGLVQPGRSLRLSCAASGFVFDDYAMHWVRQVPGKGLEWVSGISWNSVSIGYADSVKGRFTISRDNAKNSLYLQMNSLRPEDAALYYCVKSFSAEYYYYYYGMDVWGQGTTVTVSS
VL: LYVLTQPPSVSVAPGTTAWISCGGNNIGIKSVHWYQQKPGQAPLLVISYDSDRPSVIPERFSVSNSGNTVTLTISRVEAGDEADYYCQVWDNGHSHWVFGGGTKLTVLG
notes: VH/VL only

Reference: patent publication US20220204643A1 (published 2022)
